Target: freshly polymerised microtubules (Microtubule Binding Protein Spin-Down Assay kit, Cytoskeleton, Inc.)
Assay: co-sedimentation; microtubule spin-down: 2.5 μg protein, 30 min at room temperature with freshly polymerised microtubules (equivalent of 2 μM tubulin dimer), 20 μM Taxol, 10 mM MgCl2 and 4 mM GDP or GTP; 100,000 g for 40 min through a 60% glycerol cushion; supernatant and pellet on Coomassie gel

Chain of freshly polymerised microtubules (Microtubule Binding Protein Spin-Down Assay kit, Cytoskeleton, Inc.) (P68363 whole entry, chain 1 of 2): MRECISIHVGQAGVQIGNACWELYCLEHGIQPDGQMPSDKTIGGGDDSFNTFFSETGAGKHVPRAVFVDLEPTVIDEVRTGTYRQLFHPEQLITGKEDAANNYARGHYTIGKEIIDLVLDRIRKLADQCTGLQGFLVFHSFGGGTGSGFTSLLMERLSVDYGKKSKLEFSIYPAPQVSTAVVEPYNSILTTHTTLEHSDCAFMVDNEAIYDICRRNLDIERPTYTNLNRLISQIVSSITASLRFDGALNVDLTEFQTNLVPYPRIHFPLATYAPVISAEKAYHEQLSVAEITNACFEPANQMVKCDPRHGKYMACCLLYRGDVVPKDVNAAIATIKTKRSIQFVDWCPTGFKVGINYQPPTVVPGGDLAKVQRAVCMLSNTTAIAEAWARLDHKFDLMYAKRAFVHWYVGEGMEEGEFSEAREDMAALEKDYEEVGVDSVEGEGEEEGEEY
Chain of freshly polymerised microtubules (Microtubule Binding Protein Spin-Down Assay kit, Cytoskeleton, Inc.) (A8K068 whole entry, chain 2 of 2, further chain): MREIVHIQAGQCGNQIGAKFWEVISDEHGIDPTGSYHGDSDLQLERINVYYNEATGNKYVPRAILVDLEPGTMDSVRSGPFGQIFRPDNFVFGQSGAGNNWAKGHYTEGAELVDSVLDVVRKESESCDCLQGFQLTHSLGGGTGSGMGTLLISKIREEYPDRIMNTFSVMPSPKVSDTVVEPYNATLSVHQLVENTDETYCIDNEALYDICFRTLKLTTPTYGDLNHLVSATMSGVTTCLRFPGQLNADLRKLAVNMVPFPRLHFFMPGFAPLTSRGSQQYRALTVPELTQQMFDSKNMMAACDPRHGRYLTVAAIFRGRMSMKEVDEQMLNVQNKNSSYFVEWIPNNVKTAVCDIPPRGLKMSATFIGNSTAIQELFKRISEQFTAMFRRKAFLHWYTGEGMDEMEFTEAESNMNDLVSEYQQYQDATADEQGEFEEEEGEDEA

## N-terminal His-tagged recombinant T. brucei ARL6 (natural protein)
  percent of the protein in the insoluble fraction with microtubules, with GDP: 36%
  percent of the protein in the insoluble fraction with microtubules, with GTP: 20%

— publication PMC3793860, “A role for the vesicle-associated tubulin binding protein ARL6 (BBS3) in flagellum extension in Trypanosoma brucei” (Biochimica et Biophysica Acta, 2012)
